Measurements taken from patent publication US20190248900A1 (Y BIOLOGICS, published 2019).

Assays:
Experiment in all cases: ELISA
WFDC2 = biological target: T1, WFDC2 (Homo sapiens (Human), UniProt Q14508 31-124)
T1 sequence: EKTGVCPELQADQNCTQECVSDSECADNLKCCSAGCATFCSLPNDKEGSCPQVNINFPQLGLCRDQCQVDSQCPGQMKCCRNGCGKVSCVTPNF

AGR3 = biological target: T2, AGR3 (Homo sapiens (Human), UniProt Q8TD06 22-166)
T2 sequence: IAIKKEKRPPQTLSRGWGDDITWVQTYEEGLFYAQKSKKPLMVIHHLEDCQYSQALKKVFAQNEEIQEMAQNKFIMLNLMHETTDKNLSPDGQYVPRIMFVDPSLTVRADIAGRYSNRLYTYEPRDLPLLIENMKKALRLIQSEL

ULBP1 = biological target: T3, ULBP1 (Homo sapiens (Human), UniProt Q9BZM6 26-216)
T3 sequence: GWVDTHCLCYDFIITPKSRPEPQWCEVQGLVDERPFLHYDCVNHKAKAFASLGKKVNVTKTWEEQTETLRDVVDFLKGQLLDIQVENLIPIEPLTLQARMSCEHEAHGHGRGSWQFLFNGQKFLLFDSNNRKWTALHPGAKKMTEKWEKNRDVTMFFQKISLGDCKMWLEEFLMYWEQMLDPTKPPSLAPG

HAPLN4 = HAPLN4 (Homo sapiens (Human), UniProt Q86UW8 30-402)
Sequence of HAPLN4 (Q86UW8 30-402 limits assumed): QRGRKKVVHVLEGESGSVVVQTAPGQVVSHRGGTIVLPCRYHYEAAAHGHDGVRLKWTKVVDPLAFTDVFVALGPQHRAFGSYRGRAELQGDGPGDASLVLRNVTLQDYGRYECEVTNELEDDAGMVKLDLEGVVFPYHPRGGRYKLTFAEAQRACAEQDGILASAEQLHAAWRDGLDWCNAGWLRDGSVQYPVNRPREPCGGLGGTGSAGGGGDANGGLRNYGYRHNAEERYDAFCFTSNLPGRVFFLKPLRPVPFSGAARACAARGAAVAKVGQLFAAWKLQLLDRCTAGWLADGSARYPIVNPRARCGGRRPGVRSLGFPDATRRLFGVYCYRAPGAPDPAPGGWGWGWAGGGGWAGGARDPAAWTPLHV

TPBG = biological target: T4, TPBG (Homo sapiens (Human), UniProt Q13641 32-355)
T4 sequence: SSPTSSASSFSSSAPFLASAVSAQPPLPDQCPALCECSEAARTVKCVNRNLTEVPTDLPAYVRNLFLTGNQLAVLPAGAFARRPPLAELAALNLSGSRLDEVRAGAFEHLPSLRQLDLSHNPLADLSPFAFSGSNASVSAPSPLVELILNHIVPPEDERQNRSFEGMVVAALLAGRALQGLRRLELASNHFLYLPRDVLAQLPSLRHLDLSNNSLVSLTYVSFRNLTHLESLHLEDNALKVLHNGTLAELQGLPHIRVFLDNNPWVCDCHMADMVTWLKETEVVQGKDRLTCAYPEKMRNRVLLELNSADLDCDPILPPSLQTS

LRRN4 = biological target: T5, LRRN4 (Homo sapiens (Human), UniProt Q8WUT4 19-679)
T5 sequence: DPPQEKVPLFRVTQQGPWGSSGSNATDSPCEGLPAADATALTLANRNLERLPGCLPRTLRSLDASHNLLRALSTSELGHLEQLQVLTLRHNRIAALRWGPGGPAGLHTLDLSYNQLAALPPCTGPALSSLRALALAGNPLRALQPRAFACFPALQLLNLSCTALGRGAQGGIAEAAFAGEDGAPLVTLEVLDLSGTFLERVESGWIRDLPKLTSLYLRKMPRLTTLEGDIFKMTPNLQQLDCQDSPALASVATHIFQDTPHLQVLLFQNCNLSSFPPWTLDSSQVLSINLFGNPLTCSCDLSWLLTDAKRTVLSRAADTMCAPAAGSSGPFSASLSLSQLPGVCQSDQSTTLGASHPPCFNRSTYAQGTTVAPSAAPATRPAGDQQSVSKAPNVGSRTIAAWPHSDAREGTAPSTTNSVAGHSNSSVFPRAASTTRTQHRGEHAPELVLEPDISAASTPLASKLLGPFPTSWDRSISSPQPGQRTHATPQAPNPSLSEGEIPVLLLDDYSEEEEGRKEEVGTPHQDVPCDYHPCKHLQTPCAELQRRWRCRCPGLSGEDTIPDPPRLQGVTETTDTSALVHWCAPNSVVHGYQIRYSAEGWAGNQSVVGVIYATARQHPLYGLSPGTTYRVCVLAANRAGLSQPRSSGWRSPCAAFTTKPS

C2orf28 = biological target: T6, C2orf28 (Homo sapiens (Human), UniProt Q6UW56 31-199)
T6 sequence: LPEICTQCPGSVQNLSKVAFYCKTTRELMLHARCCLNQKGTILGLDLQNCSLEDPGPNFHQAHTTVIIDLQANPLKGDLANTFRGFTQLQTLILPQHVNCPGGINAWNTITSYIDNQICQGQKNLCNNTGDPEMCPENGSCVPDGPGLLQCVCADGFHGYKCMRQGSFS

CD86 = biological target: T7, CD86 (Homo sapiens (Human), UniProt P42081 24-247)
T7 sequence: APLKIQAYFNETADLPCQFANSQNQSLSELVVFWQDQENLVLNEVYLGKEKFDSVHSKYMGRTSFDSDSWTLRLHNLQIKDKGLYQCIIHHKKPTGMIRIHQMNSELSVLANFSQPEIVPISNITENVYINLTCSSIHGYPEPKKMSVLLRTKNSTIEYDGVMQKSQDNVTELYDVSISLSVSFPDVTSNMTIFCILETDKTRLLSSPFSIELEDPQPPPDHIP

PLXDC1 = biological target: T8, PLXDC1 (Homo sapiens (Human), UniProt Q8IUK5 19-426)
T8 sequence: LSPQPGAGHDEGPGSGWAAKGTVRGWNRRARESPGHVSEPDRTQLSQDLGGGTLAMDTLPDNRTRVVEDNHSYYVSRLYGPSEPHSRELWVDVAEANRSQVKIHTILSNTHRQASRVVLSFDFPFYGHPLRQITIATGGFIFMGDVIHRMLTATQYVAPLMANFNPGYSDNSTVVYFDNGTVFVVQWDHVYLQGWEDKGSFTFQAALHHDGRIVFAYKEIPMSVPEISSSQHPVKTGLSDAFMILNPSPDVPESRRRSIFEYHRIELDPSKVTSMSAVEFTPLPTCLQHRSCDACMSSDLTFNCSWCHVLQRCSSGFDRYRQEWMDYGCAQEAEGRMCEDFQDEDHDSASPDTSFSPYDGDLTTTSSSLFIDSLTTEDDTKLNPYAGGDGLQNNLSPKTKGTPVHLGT

NRG4 = biological target: T9, NRG4 (Homo sapiens (Human), UniProt Q8WWG1 1-62)
T9 sequence: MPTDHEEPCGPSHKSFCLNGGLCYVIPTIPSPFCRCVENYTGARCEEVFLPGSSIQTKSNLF

Measured: binding result

B1: PD1-41C9 (antibody, V domains shown)
VH: QMQLVESGGGVVQPGRSLRLSCAASGFTFSSYAMHWVRQAPGKGLEWVAVISYDGSNKYYADSVKGRFTISRDNSKNTLYLQMNRLRSEDTAVYYCTTTTFDSWGQGTLITVSS
VL: DIVMTQTPLSLPVTPGEAASISCRSSQSLLDSEDGNTYLDWYLQKPGQSPQLLIYTLSHRASGVPDRFSGSGSGTDFTLKISRVAAEDVGLYYCLQRMGFPYTFGQGTKLDIK
notes: scFv-phage in the screening ELISA; whole IgG in the other assays
no binding (tested: 1 ug/ml): all assays above

B2: PD1-49A2 (antibody, V domains shown)
VH: QVQLVESGGGVVQPGRSLRLSCAASGFTFSSYAMHWVRQAPGKGLEWVAVISYDGSNKYYADSVKGRFTISRDNPKNTLYLQMNSLRAEDTAVYYCTTTTFDSWGRGTLVTVSS
VL: DIVMTQSPLSLPVTPGEPASISCRSSQSLFDSDDGNTYLDWYLQKPGQSPQLLIYTLSHRASGVPDRFSGSGSGTDFTLKISRVEAEDVGIYYCLQRMGFPYTFGQGTKVEIK
notes: scFv-phage in the screening ELISA; whole IgG in the other assays; also called Parent 49A2
no binding (tested: 1 ug/ml): all assays above

B3: PD1-45D6 (antibody, V domains shown)
VH: QVQLVESGGGVVQPGRSLRLSCAASGFTFSSYAMHWVRQVPGKGLEWVAVISYDGNDKYYADSVKGRFTISRDNSKNTLYLQMNSLRAEDTAVYYCVPTTFEYWGQGSQVTVSS
VL: DIVMTQTPLSLPVTPGEAASISCRSSQSLLDSDDGKTYLDWYLQKPGQSPQLLIYTLSYRASGVPDRFSGSGSGTEFNLRISRVEAEDVGIYYCMQRVEFPFTFGQGTKLDIK
notes: as for B1
no binding (tested: 1 ug/ml): all assays above
